Results published in patent US20100021987.

B1: Arabidopsis thalania ULP1c (AtULP1c) SUMO protease catalytic domain (protein)
chain: MVVEEACELPEGLPEDIYYPSSDQSDGRDLVQVSLKDLKCLSPGEYLTSPVINFYIRYVQHHVFSADKTAANCHFFNTFFYKKLTEAVSYKGNDRDAYFVKFRRWWKGFDLFCKSYIFIPIHEDLHWSLVIICIPDKEDESGLTIIHLDSLGLHPRNLIFNNVKRFLREEWNYLNQDAPLDLPISAKVWRDLPNMINEAEVQVPQQKNDFDCGLFLLFFIRRFIEEAPQRLTLQDLKMIHKKWFKPEEASALRIKIWNILVDLFRKGNQTDLEHHHHHH
B2: human SENP6 (hSENP6) SUMO protease catalytic domain (protein)
chain: MGENHTIFIGPVEKLIVYPPPPAKGGISVTNEDLHCLNEGEFLNDVIIDFYLKYLVLEKLKKEDADRIHIFSSFFYKRLNQRERRNHETTNLSIQQKRHGRVKTWTRHVDIFEKDFIFVPLNEAAHWFLAVVCFPGLEKPKYEPNPHYHENAVIQKCSTVEDSCISSSASEMESCSQNSSAKPVIKKMLNKKHCIAVIDSNPGQEESDPRYKRNICSVKYSVKKINHTASENEEFNKGESTSQKVADRTKSENGLQNESLSSTHHTDGLSKIRLNYSDESPEAGKMLEDELVDFSEDQDNQDDSSDDGFLADDNCSSEIGQWHLKPTICKQPCILLMDSLRGPSRSNVVKILREYLEVEWEVKKGSKRSFSKDVMKGSNPKVPQQNNFSDCGVYVLQYVESFFENPILSFELPMNLANWFPPPRMRTKREEIRNIILKLQEDQSKEKRKHKDTYSTEAPLGEGTEQYVNSISDLEHHHHHH
B3: human SENP1 (hSENP1) SUMO protease catalytic domain (protein)
chain: MASFPEITEEMEKEIKNVFRNGNQDEVLSEAFRLTITRKDIQTLNHLNWLNDEIINFYMNMLMERSKEKGLPSVHAFNTFFFTKLKTAGYQAVKRWTKKVDVFSVDILLVPIHLGVHWCLAVVDFRKKNITYYDSMGGINNEACRILLQYLKQESIDKKRKEFDTNGWQLFSKKSQIPQQMNGSDCGMFACKYADCITKDRPINFTQQHMPYFRKRMVWEILHRKLLEHHHHHH

Protein | activity level (grade) (6xHis-AtSUMO1-eGFP) | cleavage, single enzyme concentration, SDS-PAGE (6xHis-AtSUMO1-eGFP) | activity level (grade) (6xHis-AtSUMO2-eGFP) | cleavage, single enzyme concentration, SDS-PAGE (6xHis-AtSUMO2-eGFP) | activity level (grade) (6xHis-T-SUMO-eGFP) | cleavage, single enzyme concentration, SDS-PAGE (6xHis-T-SUMO-eGFP) | activity level (grade) (6xHis-hSUMO-1-eGFP) | cleavage, single enzyme concentration, SDS-PAGE (6xHis-hSUMO-1-eGFP) | activity level (grade) (6xHis-hSUMO-3-eGFP) | cleavage, single enzyme concentration, SDS-PAGE (6xHis-hSUMO-3-eGFP) | activity level (grade) (6xHis-ySmt3-eGFP) | cleavage, single enzyme concentration, SDS-PAGE (6xHis-ySmt3-eGFP)
B1 | - | AtULP1c did not show activity against any of the SUMO fusions | - | AtULP1c did not show activity against any of the SUMO fusions | - | AtULP1c did not show activity against any of the SUMO fusions | - | AtULP1c did not show activity against any of the SUMO fusions | - | AtULP1c did not show activity against any of the SUMO fusions | - | AtULP1c did not show activity against any of the SUMO fusions
B2 | - | did not digest the others at the incubation time and enzyme concentration used | - | did not digest the others at the incubation time and enzyme concentration used | - | did not digest the others at the incubation time and enzyme concentration used | - | did not digest the others at the incubation time and enzyme concentration used | +/- | demonstrated partial cleavage of hSUMO-3-eGFP | - | did not digest the others at the incubation time and enzyme concentration used
B3 | +/- | It also cleaved the other 4 fusions, but to a much lesser extent | +/- | It also cleaved the other 4 fusions, but to a much lesser extent | +/- | It also cleaved the other 4 fusions, but to a much lesser extent | +/- | It also cleaved the other 4 fusions, but to a much lesser extent | + | cleaved ySmt3 the best, followed by hSUMO-3 | ++ | hSENP1, which cleaved ySmt3 the best
